What was measured:
Assay in all cases: cell-based or functional assay
bovine trypsin (bovine) = bovine trypsin (bovine) (UniProt P00760)
[1] = biological target: T1, Trypsin-like protease (TL1) from Fusarium oxysporum (Fusarium oxysporum) (UniProt P35049)
T1 sequence: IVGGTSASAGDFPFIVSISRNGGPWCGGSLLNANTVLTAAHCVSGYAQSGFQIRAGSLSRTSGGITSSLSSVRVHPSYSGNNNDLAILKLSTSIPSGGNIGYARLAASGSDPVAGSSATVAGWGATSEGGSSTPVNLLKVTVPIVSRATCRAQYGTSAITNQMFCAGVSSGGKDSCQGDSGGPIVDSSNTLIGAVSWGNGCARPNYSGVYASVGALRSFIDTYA

[2] = biological target: T2, Trypsin-like protease (TL6) from Fusarium cf. solani (Fusarium cf. solani)
T2 sequence: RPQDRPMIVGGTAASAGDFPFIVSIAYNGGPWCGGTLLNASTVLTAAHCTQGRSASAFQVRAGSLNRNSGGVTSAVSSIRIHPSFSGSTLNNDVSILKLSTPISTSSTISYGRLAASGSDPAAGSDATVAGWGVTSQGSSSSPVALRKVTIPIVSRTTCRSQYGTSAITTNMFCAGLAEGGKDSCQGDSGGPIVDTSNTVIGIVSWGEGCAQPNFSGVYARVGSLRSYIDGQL

[3] = biological target: T3, Trypsin-like protease (TL5) from Fusarium solani (Fusarium solani)
T3 sequence: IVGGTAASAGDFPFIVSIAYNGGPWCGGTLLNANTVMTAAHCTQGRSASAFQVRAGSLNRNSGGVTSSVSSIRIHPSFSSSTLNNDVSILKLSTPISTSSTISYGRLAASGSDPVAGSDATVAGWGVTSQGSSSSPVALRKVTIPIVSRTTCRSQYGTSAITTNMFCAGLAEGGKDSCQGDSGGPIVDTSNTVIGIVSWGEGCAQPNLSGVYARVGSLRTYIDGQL

[4] = biological target: porcine trypsin (porcine) (UniProt P00761)

B1: Bowman-Birk inhibitor (commercial preparation, Cat # T-9777, Sigma-Aldrich) (protein, UniProt P01055 40-110, looked up)
chain: DDESSKPCCDQCACTKSNPPQCRCSDMRLNSCHSACKSCICALSYPAQCFCVDITDFCYEPCKPSEDDKEN
- % residual activity at 0.00048 mg/ml Bowman-Birk inhibitor (% residual activity) (bovine trypsin (bovine)): 0.9
- % residual activity at 0.00097 mg/ml Bowman-Birk inhibitor (% residual activity) (bovine trypsin (bovine)): 5.3
- % residual activity at 0.00195 mg/ml Bowman-Birk inhibitor (% residual activity) (bovine trypsin (bovine)): 0.1
- % residual activity at 0.0039 mg/ml Bowman-Birk inhibitor (% residual activity) (bovine trypsin (bovine)): -0.4
- % residual activity at 0.0078 mg/ml Bowman-Birk inhibitor (% residual activity) (bovine trypsin (bovine)): 0
- % residual activity at 0.0156 mg/ml Bowman-Birk inhibitor (% residual activity) (bovine trypsin (bovine)): -1.5
- % residual activity at 0.0313 mg/ml Bowman-Birk inhibitor (% residual activity) (bovine trypsin (bovine)): 0.1
- % residual activity at 0.0625 mg/ml Bowman-Birk inhibitor (% residual activity) (bovine trypsin (bovine)): 0
- % residual activity at 0.125 mg/ml Bowman-Birk inhibitor (% residual activity) (bovine trypsin (bovine)): 0
- % residual activity at 0.25 mg/ml Bowman-Birk inhibitor (% residual activity) (bovine trypsin (bovine)): 0
- % residual activity at 0.5 mg/ml Bowman-Birk inhibitor (% residual activity) (bovine trypsin (bovine)): 0
- % residual activity at 0.00048 mg/ml Bowman-Birk inhibitor (% residual activity) [1]: 117
- % residual activity at 0.00097 mg/ml Bowman-Birk inhibitor (% residual activity) [1]: 111
- % residual activity at 0.00195 mg/ml Bowman-Birk inhibitor (% residual activity) [1]: 103
- % residual activity at 0.0039 mg/ml Bowman-Birk inhibitor (% residual activity) [1]: 109
- % residual activity at 0.0078 mg/ml Bowman-Birk inhibitor (% residual activity) [1]: 82
- % residual activity at 0.0156 mg/ml Bowman-Birk inhibitor (% residual activity) [1]: 61
- % residual activity at 0.0313 mg/ml Bowman-Birk inhibitor (% residual activity) [1]: 32
- % residual activity at 0.0625 mg/ml Bowman-Birk inhibitor (% residual activity) [1]: 13
- % residual activity at 0.125 mg/ml Bowman-Birk inhibitor (% residual activity) [1]: 5.8
- % residual activity at 0.25 mg/ml Bowman-Birk inhibitor (% residual activity) [1]: 2.2
- % residual activity at 0.5 mg/ml Bowman-Birk inhibitor (% residual activity) [1]: 0.8
- % residual activity at 0.00048 mg/ml Bowman-Birk inhibitor (% residual activity) [2]: 104
- % residual activity at 0.00097 mg/ml Bowman-Birk inhibitor (% residual activity) [2]: 107
- % residual activity at 0.00195 mg/ml Bowman-Birk inhibitor (% residual activity) [2]: 94
- % residual activity at 0.0039 mg/ml Bowman-Birk inhibitor (% residual activity) [2]: 97
- % residual activity at 0.0078 mg/ml Bowman-Birk inhibitor (% residual activity) [2]: 84
- % residual activity at 0.0156 mg/ml Bowman-Birk inhibitor (% residual activity) [2]: 66
- % residual activity at 0.0313 mg/ml Bowman-Birk inhibitor (% residual activity) [2]: 55
- % residual activity at 0.0625 mg/ml Bowman-Birk inhibitor (% residual activity) [2]: 26
- % residual activity at 0.125 mg/ml Bowman-Birk inhibitor (% residual activity) [2]: 9.5
- % residual activity at 0.25 mg/ml Bowman-Birk inhibitor (% residual activity) [2]: 2.9
- % residual activity at 0.5 mg/ml Bowman-Birk inhibitor (% residual activity) [2]: 1.3
- % residual activity at 0.00048 mg/ml Bowman-Birk inhibitor (% residual activity) [3]: 78
- % residual activity at 0.00097 mg/ml Bowman-Birk inhibitor (% residual activity) [3]: 71
- % residual activity at 0.00195 mg/ml Bowman-Birk inhibitor (% residual activity) [3]: 57
- % residual activity at 0.0039 mg/ml Bowman-Birk inhibitor (% residual activity) [3]: 55
- % residual activity at 0.0078 mg/ml Bowman-Birk inhibitor (% residual activity) [3]: 43
- % residual activity at 0.0156 mg/ml Bowman-Birk inhibitor (% residual activity) [3]: 29
- % residual activity at 0.0313 mg/ml Bowman-Birk inhibitor (% residual activity) [3]: 19
- % residual activity at 0.0625 mg/ml Bowman-Birk inhibitor (% residual activity) [3]: 7.2
- % residual activity at 0.125 mg/ml Bowman-Birk inhibitor (% residual activity) [3]: 3.1
- % residual activity at 0.25 mg/ml Bowman-Birk inhibitor (% residual activity) [3]: 1.2
- % residual activity at 0.5 mg/ml Bowman-Birk inhibitor (% residual activity) [3]: 0.5
- % residual activity at 0.00048 mg/ml Bowman-Birk inhibitor (% residual activity) [4]: 11
- % residual activity at 0.00097 mg/ml Bowman-Birk inhibitor (% residual activity) [4]: 9.4
- % residual activity at 0.00195 mg/ml Bowman-Birk inhibitor (% residual activity) [4]: 8.3
- % residual activity at 0.0039 mg/ml Bowman-Birk inhibitor (% residual activity) [4]: 6.2
- % residual activity at 0.0078 mg/ml Bowman-Birk inhibitor (% residual activity) [4]: 3.2
- % residual activity at 0.0156 mg/ml Bowman-Birk inhibitor (% residual activity) [4]: 2.2
- % residual activity at 0.0313 mg/ml Bowman-Birk inhibitor (% residual activity) [4]: 1
- % residual activity at 0.0625 mg/ml Bowman-Birk inhibitor (% residual activity) [4]: 0.4
- % residual activity at 0.125 mg/ml Bowman-Birk inhibitor (% residual activity) [4]: 0.2
- % residual activity at 0.25 mg/ml Bowman-Birk inhibitor (% residual activity) [4]: 0.1
- % residual activity at 0.5 mg/ml Bowman-Birk inhibitor (% residual activity) [4]: 0.1
